In PMC11790652 one finds black lipid bilayer (BLB) channel conductance of B-fractions in 1 M KCl, 20 mV and stoichiometry N data, which are given here for three substances.

Assay [1] addresses P66 G175V (site-directed mutant, B. burgdorferi B31 A3) (Borrelia burgdorferi (strain B31 A3)).
The target is the same in assay [2]. Description: native gel or EMSA; BN-PAGE of outer membrane proteins (B-fractions) of the B. burgdorferi strains, immunoblot probed with rabbit polyclonal antibody D8713 against P66.
Assay [3] has as its target P66 T176M (site-directed mutant, B. burgdorferi B31 A3) (Borrelia burgdorferi (strain B31 A3)).
Assay [4] has the same target. The assay is described as follows: native gel or EMSA; BN-PAGE of outer membrane proteins (B-fractions) of the B. burgdorferi strains, immunoblot probed with rabbit polyclonal antibody D8713 against P66. For orientation: Mobility shift assays separate free from complexed probe on a gel.
Assay [5] deals with P66 G584R (site-directed mutant, B. burgdorferi B31 A3) (Borrelia burgdorferi (strain B31 A3)).
Assay [6] has the same target. Description: native gel or EMSA; BN-PAGE of outer membrane proteins (B-fractions) of the B. burgdorferi strains, immunoblot probed with rabbit polyclonal antibody D8713 against P66.

By stoichiometry N is commonly meant the number of molecules, sites or subunits per partner or assembly. In assay [1], “P66 G175V (site-directed mutant, B. burgdorferi B31 A3) (natural protein)” displayed a black lipid bilayer (BLB) channel conductance of B-fractions in 1 M KCl, 20 mV of less than 5 nS. The same substance registered a stoichiometry N in assay [2] of 3.
“P66 T176M (site-directed mutant, B. burgdorferi B31 A3) (natural protein)” had a black lipid bilayer (BLB) channel conductance of B-fractions in 1 M KCl, 20 mV in assay [3] of less than 5 nS. The substance also gave a stoichiometry N in assay [4] of 3.
For the substance “P66 G584R (site-directed mutant, B. burgdorferi B31 A3) (natural protein)”, the black lipid bilayer (BLB) channel conductance of B-fractions in 1 M KCl, 20 mV in assay [5] was less than 5 nS. Also, the stoichiometry N in assay [6] was found to be 3.
